The record followed here is article PMC10018367.

Common to all, as to assay: EMSA
In general terms: Mobility shift assays separate free from complexed probe on a gel.

Data set [1] concerns the target T1, PARP1 (Homo sapiens, UniProt P09874 1-1014).
In data set [2] the target is T1, PARP1. This is another data set of the same source.
Data set [3] has as its target T1, PARP1. The source holds these as a separate data set.
In data set [4] the target is T1, PARP1. This is another data set of the same source.

Where two headings read alike, the source gives them in different places.

T1 sequence (P09874 whole entry): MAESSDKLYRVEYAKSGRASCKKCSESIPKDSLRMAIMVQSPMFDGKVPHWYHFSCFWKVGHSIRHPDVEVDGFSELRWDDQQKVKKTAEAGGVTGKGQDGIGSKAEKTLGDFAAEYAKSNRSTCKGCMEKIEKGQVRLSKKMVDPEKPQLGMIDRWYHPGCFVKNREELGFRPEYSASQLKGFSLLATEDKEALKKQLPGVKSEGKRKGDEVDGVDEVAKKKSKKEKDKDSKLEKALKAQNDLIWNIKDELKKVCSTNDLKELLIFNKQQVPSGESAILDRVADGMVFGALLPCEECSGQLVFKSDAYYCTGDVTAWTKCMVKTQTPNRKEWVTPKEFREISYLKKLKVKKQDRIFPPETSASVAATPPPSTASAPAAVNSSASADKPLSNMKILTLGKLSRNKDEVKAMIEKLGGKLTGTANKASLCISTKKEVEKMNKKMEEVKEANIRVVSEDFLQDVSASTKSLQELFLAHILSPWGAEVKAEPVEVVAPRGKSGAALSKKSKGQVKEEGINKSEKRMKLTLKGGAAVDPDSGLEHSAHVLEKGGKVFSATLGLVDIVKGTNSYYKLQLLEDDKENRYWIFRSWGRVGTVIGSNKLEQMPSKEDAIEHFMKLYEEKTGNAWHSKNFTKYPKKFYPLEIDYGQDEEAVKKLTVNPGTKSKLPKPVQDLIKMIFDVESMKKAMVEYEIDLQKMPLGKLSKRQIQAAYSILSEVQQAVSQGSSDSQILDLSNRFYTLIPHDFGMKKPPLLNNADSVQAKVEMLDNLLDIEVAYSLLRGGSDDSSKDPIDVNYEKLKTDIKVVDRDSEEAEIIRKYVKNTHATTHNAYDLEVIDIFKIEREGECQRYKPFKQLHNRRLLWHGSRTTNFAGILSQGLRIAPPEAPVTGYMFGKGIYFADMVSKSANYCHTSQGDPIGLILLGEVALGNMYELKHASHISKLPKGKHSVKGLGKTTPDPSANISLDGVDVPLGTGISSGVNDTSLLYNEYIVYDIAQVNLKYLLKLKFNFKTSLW

B1: ssDNA JYM3702 (ssDNA)
DNA: GGGTGAACCTGCAGGTGGGCGGCTGCTCATCGTAGGTTAGTTGGTAGAATTCGGCAGCGTC
Regarding B1, the binding result with PARP1 [1] is given as “binds”.

B2: D-loop (JYM3702 + JYM3703 + JYM3705) (structured_DNA)
DNA 1: GGGTGAACCTGCAGGTGGGCGGCTGCTCATCGTAGGTTAGTTGGTAGAATTCGGCAGCGTC
DNA 2: GACGCTGCCGAATTCTACCAGTGCCTTGCTAGGACATCTTTGCCCACCTGCAGGTTCACCC
DNA 3: AAAGATGTCCTAGCAAGGCAC
Consider B2, for which the binding result with PARP1 [2] is recorded as “binds”.

B3: R-loop (JYM3702 + JYM3703 + JYM3704) (mixed)
DNA 1: GGGTGAACCTGCAGGTGGGCGGCTGCTCATCGTAGGTTAGTTGGTAGAATTCGGCAGCGTC
DNA 2: GACGCTGCCGAATTCTACCAGTGCCTTGCTAGGACATCTTTGCCCACCTGCAGGTTCACCC
RNA: AAAGAUGUCCUAGCAAGGCAC
modifications: RNA strand 3
On to B3, for which the binding result with PARP1 [3] is given as “binds”.

Turning to AAAGAUGUCCUAGCAAGGCAC (ssRNA) [ssRNA JYM3704], in the data set with PARP1 [4], the binding result was “no binding”.
